{"source": "paper PMC10746227", "about": "“The two-component system WalKR provides an essential link between cell wall homeostasis and DNA replication in Staphylococcus aureus” (mBio, 2023)", "target": "T1, WalK-LgBIT (native WalK) (S. aureus, UniProt Q2FKN7 1-608)", "T1 construct": "WalK, transmembrane sensor histidine kinase of the WalKR two-component system, S. aureus NRS384 (USA300); open reading frame with the stop codon removed; also called WalK Wt; source: S. aureus NRS384, from plasmid pLgBIT, in living cells", "T1 sequence (looked up)": "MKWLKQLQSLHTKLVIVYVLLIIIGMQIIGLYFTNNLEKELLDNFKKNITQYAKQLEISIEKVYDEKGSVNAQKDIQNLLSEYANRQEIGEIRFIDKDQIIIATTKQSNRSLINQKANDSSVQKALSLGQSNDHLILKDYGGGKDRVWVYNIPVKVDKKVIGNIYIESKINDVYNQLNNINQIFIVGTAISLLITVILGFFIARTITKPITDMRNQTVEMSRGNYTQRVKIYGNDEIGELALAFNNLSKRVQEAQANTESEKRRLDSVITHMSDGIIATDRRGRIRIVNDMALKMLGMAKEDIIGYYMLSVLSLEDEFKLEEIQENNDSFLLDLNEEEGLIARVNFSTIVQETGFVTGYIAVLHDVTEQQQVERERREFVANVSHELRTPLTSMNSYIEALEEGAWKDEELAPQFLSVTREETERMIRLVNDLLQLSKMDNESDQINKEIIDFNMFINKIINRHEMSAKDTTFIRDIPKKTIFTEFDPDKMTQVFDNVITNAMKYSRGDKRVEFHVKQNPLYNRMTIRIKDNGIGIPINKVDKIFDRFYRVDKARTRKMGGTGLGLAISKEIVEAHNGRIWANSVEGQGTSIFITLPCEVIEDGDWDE", "experiment": "split reporter (BiFC, NanoBiT); WalR-SmBIT (pSmBIT) and WalK-LgBIT (pLgBIT) alleles together in living S. aureus NRS384; LB with chloramphenicol, kanamycin and Nano-Glo substrate 1:5,000, 37°C, 96-well plate; OD600nm and light emission (RLU) read every 10 min over 8 h; lag and exponential phase", "conditions": "partners not purified", "data": [{"binder": "WalR_(T101A)-SmBIT (natural protein, WalR, response regulator, S. aureus NRS384 (USA300); open reading frame with the stop codon removed; also called \"down\" mutant; source: S. aureus NRS384, from plasmid pSmBIT, in living cells) MARKVVVVDDEKPIADILEFNLKKEGYDVYCAYDGNDAVDLIYEEEPDIVLLDIMLPGRDGMEVCREVRKKYEMPIIMLTAKDSEIDKVLGLELGADDYVAKPFSTRELIARVKANLRRHYSQPAQDTGNVTNEITIKDIVIYPDAYSIKKRGEDIELTHREFELFHYLSKHMGQVMTREHLLQTVWGYDYFGDVRTVDVTIRRLREKIEDDPSHPEYIVTRRGVGYFLQQHE", "values": [{"measurement": "fold change of the maximal level of interaction against native WalK/WalR", "result": 1.5, "unit": "fold"}]}]}
